As a reminder, the Kd is a measure of binding affinity in units of concentration. Usually stoichiometry N stands for a count of units in the complex or per binding partner.

This note sets out measurements from publication PMC4058522, “Structural Basis for Phosphorylation-Dependent Recruitment of Tel2 to Hsp90 by Pih1” (Structure(London, England:1993), 2014).

Assay [1] concerns the target mouse Pih1 PIH domain 1-200 (His-mPih1 1-200) (mouse) (UniProt Q9CQJ2). Kind of assay: ITC; peptides at 350 μM injected into 30 μM Pih1 (mPIH domain) at 30°C; 20 mM Tris pH 7.5, 5 mM NaCl. For orientation: ITC needs no label: the signal is the heat of the interaction.
For assay [2], the target named is yeast Hsp90, intact (full-length) dimer (yeast) (UniProt P02829). As to the kind of experiment: ITC; 600 μM Tah1 injected into 40 μM yeast Hsp90; 10 mM Tris pH 7.5, 5 mM NaCl; 10°C or 30°C (not told which).
The target of assay [3] is human Spagh/RPAP3 120-395 (tandem TPR region) (human) (UniProt Q9H6T3). As to the kind of experiment: ITC; 500 μM yeast Hsp90 injected into 20 μM Spagh/RPAP3 120-395; 10 mM Tris pH 7.5, 5 mM NaCl; 10°C or 30°C (not told which).
Chain of human Spagh/RPAP3 120-395 (tandem TPR region) (human) (Q9H6T3 120-395): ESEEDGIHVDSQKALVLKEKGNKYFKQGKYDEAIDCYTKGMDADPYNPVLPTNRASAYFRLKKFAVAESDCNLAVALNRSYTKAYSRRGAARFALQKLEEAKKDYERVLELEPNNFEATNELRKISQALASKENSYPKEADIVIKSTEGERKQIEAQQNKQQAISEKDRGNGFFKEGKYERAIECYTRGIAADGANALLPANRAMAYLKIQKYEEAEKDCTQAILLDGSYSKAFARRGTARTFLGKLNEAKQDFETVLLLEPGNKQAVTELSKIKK
Assay [4] has as its target pre-assembled full-length yeast Tah1-Pih1 complex (yeast) (UniProt P25638). Kind of assay: ITC; 301 μM yeast Hsp90 injected into 25 μM yeast Tah1-Pih1 complex; 10 mM Tris pH 7.5, 5 mM NaCl; 10°C or 30°C (not told which).

Chain of mouse Pih1 PIH domain 1-200 (His-mPih1 1-200) (mouse) (Q9CQJ2 1-200): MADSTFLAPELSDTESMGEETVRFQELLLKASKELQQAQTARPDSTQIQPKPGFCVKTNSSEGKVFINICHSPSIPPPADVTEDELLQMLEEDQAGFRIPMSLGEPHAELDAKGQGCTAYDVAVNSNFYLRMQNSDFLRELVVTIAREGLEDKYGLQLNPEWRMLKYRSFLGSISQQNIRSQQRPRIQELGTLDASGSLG

mouse Tel2 484-496 peptide, pSer 486 yielded a Kd in assay [1] greater than 100 µM. On to “Tah1 (yeast, full-length) (from UniProt P25638 1-111) (natural protein)”, for which, in assay [2], the Kd came out at 5.9 µM and the stoichiometry N (Tah1 per Hsp90 chain) worked out at 1. mouse Tel2 484-496 peptide, pSer 492: in assay [1], the Kd is 0.39 µM.

The substance mouse Tel2 484-496 peptide, pSer 488 yielded a Kd in assay [1] of 15.3 µM. Turning to “yeast Hsp90, intact (full-length) dimer (from UniProt P02829 1-709) (natural protein)”, the Kd in assay [3] was found to be 6.8 µM; in assay [4], 4 µM. The substance also displayed a stoichiometry N in assay [3] (scale: Hsp90 chains per Spagh/RPAP3) of 2.

In assay [1], “mouse Tel2 484-496 peptide, bis-phosphorylated pSer 486 and pSer 488” displayed a Kd of 37.9 µM.

In the case of “mouse Tel2 484-496 peptide, bis-phosphorylated pSer 488 and pSer 492 (QGSDpSELDpSDDEF)”, the Kd in assay [1] turned out to be 0.17 µM.
